B1: POU domain, class 3, transcription factor 2, residues 356 to 411; numbered along this chain, P20265 (parent)
chain: KKRTSIEVSVKGALESHFLKCPKPSAQEITSLADSLQLEKEVVRVWFCNRRQKEKR
B2: GA-binding protein alpha chain, residues 172 to 250; numbered along this chain, Q06546 (parent)
chain: GYRKEQERLGIPYDPIQWSTDQVLHWVVWVMKEFSMTDIDLTTLNISGRELCSLNQEDFFQRVPRGEILWSHLELLRKY

This is an account of results in the Human Domainome abundance scans (Beltran et al. 2025).

± gives the uncertainty stated by the source.

The variants in one series derive from B1. Description: abundance fitness (aPCA) (normalised: wild type 0, dead -1); higher = more abundant; growth selection in yeast, the domain comes from the species named. The conditions noted are these: Homo sapiens.
Consider KKRTSIEVSVKGKLESHFLKCPKPSAQEITSLADSLQLEKEVVRVWFCNRRQKEKR, for which the abundance fitness stood at 0.081 ± 0.15.
Consider KKRTSIEVSVKGALESHFLKCPKPSAQEITSLADSLQLEKEVVRVWFCNSRQKEKR, for which the abundance fitness is -0.659 ± 0.12.
For KKRTSKEVSVKGALESHFLKCPKPSAQEITSLADSLQLEKEVVRVWFCNRRQKEKR, the abundance fitness came to 0.103 ± 0.15.
On to KKRTSAEVSVKGALESHFLKCPKPSAQEITSLADSLQLEKEVVRVWFCNRRQKEKR, for which the abundance fitness is -0.069 ± 0.14.
Same read-out and setting: then KKRTSHEVSVKGALESHFLKCPKPSAQEITSLADSLQLEKEVVRVWFCNRRQKEKR, with -0.247 ± 0.17; and KKRTSIEVSVKGALESHFLKCPKPSAQEITSLADSLQLEKEVVRVWFCNRRQKEAR, with 0.139 ± 0.12; and KARTSIEVSVKGALESHFLKCPKPSAQEITSLADSLQLEKEVVRVWFCNRRQKEKR, with -0.154 ± 0.15.
Turning to KERTSIEVSVKGALESHFLKCPKPSAQEITSLADSLQLEKEVVRVWFCNRRQKEKR, the abundance fitness was -0.07 ± 0.18.
With KNRTSIEVSVKGALESHFLKCPKPSAQEITSLADSLQLEKEVVRVWFCNRRQKEKR, the abundance fitness is -0.339 ± 0.2.
Turning to KVRTSIEVSVKGALESHFLKCPKPSAQEITSLADSLQLEKEVVRVWFCNRRQKEKR, the abundance fitness was -0.119 ± 0.12.
Regarding YKRTSIEVSVKGALESHFLKCPKPSAQEITSLADSLQLEKEVVRVWFCNRRQKEKR, the abundance fitness was -0.382 ± 0.44.
KKRTSIEVSVKGALCSHFLKCPKPSAQEITSLADSLQLEKEVVRVWFCNRRQKEKR: the abundance fitness is -0.612 ± 0.18.
As for KKRTSIEVSVKGALESHFLKCPNPSAQEITSLADSLQLEKEVVRVWFCNRRQKEKR, the abundance fitness amounted to 0.105 ± 0.14.
As for KKRTSIEVSVKGALESHFLKCPKPSHQEITSLADSLQLEKEVVRVWFCNRRQKEKR, the abundance fitness is -0.059 ± 0.16.
For the variant KKRTSIEVSVKGACESHFLKCPKPSAQEITSLADSLQLEKEVVRVWFCNRRQKEKR, the abundance fitness is -0.78 ± 0.2.
As to KKRTSIEVSVKGALESHFLKCPKPSAQEITSLADSNQLEKEVVRVWFCNRRQKEKR, the abundance fitness was -0.543 ± 0.14.
Turning to KKRTSIEVSVKGALESHFLKCPKPSAQEITSLADSFQLEKEVVRVWFCNRRQKEKR, the abundance fitness was -0.291 ± 0.13.
As for KKRTSIEDSVKGALESHFLKCPKPSAQEITSLADSLQLEKEVVRVWFCNRRQKEKR, the abundance fitness is -0.064 ± 0.14.
Same read-out and setting: then KKRTSIEFSVKGALESHFLKCPKPSAQEITSLADSLQLEKEVVRVWFCNRRQKEKR, with 0.065 ± 0.18.
For KKRTSIEVSVKGALESHFLKCPKPSAQEITSLADSLQLEKEVVRVWFLNRRQKEKR, the abundance fitness was -0.059 ± 0.092.
Take KKRTSIRVSVKGALESHFLKCPKPSAQEITSLADSLQLEKEVVRVWFCNRRQKEKR: the abundance fitness was -0.014 ± 0.066.
As for KKRTSIEVSVKGALESHFLKCPKPSAQEITSLADSLQLEKEVVRSWFCNRRQKEKR, the abundance fitness was found to be 0.097 ± 0.076.
In the case of KKRTSIEVSVKGALESHFLKCPKPSAQEITSLADSLQLEKEVVRVWFCFRRQKEKR, the abundance fitness is -0.515 ± 0.15.
On the same count and under the same terms, the same measure for KKRTSIEVSVKGALESHFLKCPKPSAQEITSLADSLQLEKEVVRVWFCNRRVKEKR: -0.131 ± 0.094; for KKRTSIEVSVKGALESHFLKCPKPSAQEVTSLADSLQLEKEVVRVWFCNRRQKEKR: -0.158 ± 0.11; for KKRTSIEVSVKGALESHFVKCPKPSAQEITSLADSLQLEKEVVRVWFCNRRQKEKR: -0.056 ± 0.075.
The same measure, in the same setting: the same measure for KKRTSIEVSVKGALESHFCKCPKPSAQEITSLADSLQLEKEVVRVWFCNRRQKEKR: -0.114 ± 0.13; for KKRTSIEVSVKGALESHFLKCPKPSAQEITSLADSLQLEKEVVRVWFCNRRQKGKR: -0.454 ± 0.094; for KKRTFIEVSVKGALESHFLKCPKPSAQEITSLADSLQLEKEVVRVWFCNRRQKEKR: -0.053 ± 0.18.
On the same count and under the same terms, then KKRTIIEVSVKGALESHFLKCPKPSAQEITSLADSLQLEKEVVRVWFCNRRQKEKR, with 0.118 ± 0.16; and KKRTSIEVSVKGALESHFLKCYKPSAQEITSLADSLQLEKEVVRVWFCNRRQKEKR, with -0.718 ± 0.16; and KKRTSIEVSVKGALESHFLKCPKPSAQEITSLADSLQLEKETVRVWFCNRRQKEKR, with -0.02 ± 0.12.
For KKRTSIEVSVKGALESHFLKCPKPSAQEITSLWDSLQLEKEVVRVWFCNRRQKEKR, the abundance fitness was -0.735 ± 0.17.
Same read-out and setting: the same measure for KKRTSIEVSVKGALESHFLKCPKPSAQEITSLEDSLQLEKEVVRVWFCNRRQKEKR: -0.55 ± 0.26.

Variants of B2 are the subject of the next series. The description is as above. The conditions noted are these: Homo sapiens.
As for TYRKEQERLGIPYDPIQWSTDQVLHWVVWVMKEFSMTDIDLTTLNISGRELCSLNQEDFFQRVPRGEILWSHLELLRKY, the abundance fitness is -0.156 ± 0.26.
On to RYRKEQERLGIPYDPIQWSTDQVLHWVVWVMKEFSMTDIDLTTLNISGRELCSLNQEDFFQRVPRGEILWSHLELLRKY, for which the abundance fitness stood at 0.091 ± 0.13.
As to MYRKEQERLGIPYDPIQWSTDQVLHWVVWVMKEFSMTDIDLTTLNISGRELCSLNQEDFFQRVPRGEILWSHLELLRKY, the abundance fitness came to 0.045 ± 0.28.
For AYRKEQERLGIPYDPIQWSTDQVLHWVVWVMKEFSMTDIDLTTLNISGRELCSLNQEDFFQRVPRGEILWSHLELLRKY, the abundance fitness was -0.1 ± 0.061.
On to SYRKEQERLGIPYDPIQWSTDQVLHWVVWVMKEFSMTDIDLTTLNISGRELCSLNQEDFFQRVPRGEILWSHLELLRKY, for which the abundance fitness is -0.135 ± 0.14.
As for LYRKEQERLGIPYDPIQWSTDQVLHWVVWVMKEFSMTDIDLTTLNISGRELCSLNQEDFFQRVPRGEILWSHLELLRKY, the abundance fitness is -0.634 ± 0.28.
As for EYRKEQERLGIPYDPIQWSTDQVLHWVVWVMKEFSMTDIDLTTLNISGRELCSLNQEDFFQRVPRGEILWSHLELLRKY, the abundance fitness is -0.164 ± 0.057.
Regarding QYRKEQERLGIPYDPIQWSTDQVLHWVVWVMKEFSMTDIDLTTLNISGRELCSLNQEDFFQRVPRGEILWSHLELLRKY, the abundance fitness was -0.047 ± 0.2.
As for GYAKEQERLGIPYDPIQWSTDQVLHWVVWVMKEFSMTDIDLTTLNISGRELCSLNQEDFFQRVPRGEILWSHLELLRKY, the abundance fitness is -0.268 ± 0.045.
On the same count and under the same terms, then GYCKEQERLGIPYDPIQWSTDQVLHWVVWVMKEFSMTDIDLTTLNISGRELCSLNQEDFFQRVPRGEILWSHLELLRKY, with -0.206 ± 0.055.
